Where two headings read alike, the source gives them in different places.
Key:
[1] = biological target: T1, NCAP (SARS-CoV-2, UniProt P0DTC9); assay: competition
[2] = biological target: T1, NCAP; assay: EMSA
[3] = biological target: T1, NCAP; assay: competition; remark: listed apart in the source
[4] = biological target: T2, LCD (SARS-CoV-2, UniProt P0DTC9); assay: EMSA
[5] = biological target: T3, DD-C (SARS-CoV-2, UniProt P0DTC9); assay: EMSA
[6] = biological target: T4, N-RBD (SARS-CoV-2, UniProt P0DTC9); assay: EMSA
[7] = biological target: T1, NCAP; assay: EMSA; remark: listed apart in the source
[8] = biological target: T1, NCAP; assay: EMSA; remark: listed apart in the source
[9] = biological target: T1, NCAP; assay: EMSA; remark: listed apart in the source
[10] = biological target: T2, LCD; assay: EMSA; remark: listed apart in the source
[11] = biological target: T3, DD-C; assay: EMSA; remark: listed apart in the source
[12] = biological target: T4, N-RBD; assay: EMSA; remark: listed apart in the source

B1: S8hp (structured_RNA)
RNA: GGAAGGAGCUGGUGGCCAUAGUUACGGCGCCGAUCUAAAGUCAUUUGACUUAGGCGACGAGCUUGGCACUGAUCCUUAUGAAGAUUUUCAAGAAAACUGGAACACUAAACAUAGCAGUGGUGUUACCCGUGAACUCAUGCGUGAGCUUAACGGAGGGGCAUACACUCGCUAUGU
B1: binds [1].

B2: F127 (structured_RNA)
RNA: GGAUUAAAGGUUUAUACCUUCCCAGGUAACAAACCAACCAACUUUCGAUCUCUUGUAGAUCUGUUCUCUAAACGAACUUUAAAAUCUGUGUGGCUGUCACUCGGCUGCAUGCUUAGUGCACUCACGCAG
Binder B2 has a Kd [2] of 183 ± 56 nM.

B3: S1hp (structured_RNA)
RNA: GGUUUAUACCUUCCCAGGUAACAAACCAACCAACUUUCGAUCUCUUGUAGAUC
B3: binds [3].

B4: S2 (ssRNA)
RNA: UAUAAUUAAUAACUAAUUACUG
For B4, the Kd [2] was 216 ± 23 nM, the binding result [4] was “no binding” and the binding result [5] was “no binding”. B4: no binding [6].

B5: siDGCR8-1 duplex (dsRNA)
RNA 1: CAUCGGACAAGAGUGUGAUUU
RNA 2: AUCACACUCUUGUCCGAUGUU
modifications: 5'-phosphate on both strands
B5: binds [1].

B6: Tet3-9 (structured_RNA)
RNA: GGACCGUCAAAUUGCGGGAAAGGGGUCAACAGCCGUUCAGUACCAAGUCUCAGGGGAAACUUUGAGAUGGCCUUGCAAAGGGUAUGGUAAUAAGCUGACGGACAUGGUCCUAACCACGCAGCCAAGUCCUAAGUCAACAGGAGACUGUUGAUAUGGAUGCAGUUCACAGACUAAAUGUCGGUCGGGGAAGAUGUAUUCUUCUCAUAAGAUAUAGUCGGACCUCUCCCGAAAGGGAGUUGGAGUACUCGAAAUUCGUUUGGAGGGCUGCAGGGCCCUCUAGA
B6: binds [1].

B7: SL5 (structured_RNA)
RNA: GGUCGUUGACAGGACACGAGUAACUCGUCUAUCUUCUGCAGGCUGCUUACGGUUUCGUCCGUGUUGCAGCCGAUCAUCAGCACAUCUAGGUUUCGUCCGGGUGUGACCGAAAGGUAAGAUGGAGAGCCUUGUCCCUGGUUUCAACGA
Binder B7 has a Kd [2] of 166 ± 36 nM and a Kd [7] of 1250 ± 130 nM.

B8: siDGCR8-1 antisense (ssRNA)
RNA: AUCACACUCUUGUCCGAUGUU
modifications: 5'-phosphate
B8: no binding [1].

B9: F257 (structured_RNA)
RNA: GGUCGUUGACAGGACACGAGUAACUCGUCUAUCUUCUGCAGGCUGCUUACGGUUUCGUCCGUGUUGCAGCCGAUCAUCAGCACAUCUAGGUUUCGUCCGGGUGUGACCGAAAGGUAAGAUGGAGAGCCUUGUCCCUGGUUUCAACGAGAAAACACACGUCCAACUCAGUUUGCCUGUUUUACAGGUUCGCGACGUGCUCGUACGUGGCUUUGGAGACUCCGUGGAGGAGGUCUUAUCAGAGGCACGUCAACAUCUUAAA
Work on B9 yielded a Kd [2] of 23 ± 5 nM.

B10: S1.5hp (structured_RNA)
RNA: GGAUCUCUUGUAGAUCUGUUCUCUAAACGAACUUUAAAAUCUGUGUGGCUGUCACUCGGCUGCAUGCUUAGUGCACUCACGCAG
B10: binds [3].

B11: F294 (structured_RNA)
RNA: GGAUUAAAGGUUUAUACCUUCCCAGGUAACAAACCAACCAACUUUCGAUCUCUUGUAGAUCUGUUCUCUAAACGAACUUUAAAAUCUGUGUGGCUGUCACUCGGCUGCAUGCUUAGUGCACUCACGCAGUAUAAUUAAUAACUAAUUACUGUCGUUGACAGGACACGAGUAACUCGUCUAUCUUCUGCAGGCUGCUUACGGUUUCGUCCGUGUUGCAGCCGAUCAUCAGCACAUCUAGGUUUCGUCCGGGUGUGACCGAAAGGUAAGAUGGAGAGCCUUGUCCCUGGUUUCAACGA
B11 showed a Kd [2] of 26 ± 10 nM.

B12: SL4 (structured_RNA)
RNA: GGCUGUGUGGCUGUCACUCGGCUGCAUGCUUAGUGCACUCACGCAG
B12 showed a Kd [8] of 4800 ± 200 nM and a Kd [9] of 356 ± 43 nM.

B13: SL4 hairpin (structured_RNA)
RNA: B12 RNA
For B13, the Kd [2] was 569 ± 67 nM and the Kd [7] was 8600 ± 1000 nM.

B14: S2hp (structured_RNA)
RNA: GGCUGUGUGGCUGUCACUCGGCUGCAUGCUUAGUGCACUCACGCAGUAUAAUUAAUAACUAAUUACUGUCGUUGACAGGACACGAGUAACUCGUCUAUCUUCUGCAGGCUGCUUACGGUUUCGUCCGUGUUGCAGCCGAUCAUCAGCACAUCUAGGUUUCGUCCGGGUGUGACCGAAAGGUAAGAUGGAGAGCCUUGUCCCUGGUUUCAACGA
Binder B14 has a Kd [2] of 173 ± 14 nM, a Kd [10] of roughly 1410 nM and a Kd [11] of roughly 707 nM. For the same binder, the Kd [7] was 312 ± 39 nM and the Kd [12] was roughly 354 nM.
